The target of experiment [1] is T1, recombinant human GPC-3 protein (human, UniProt P51654 25-559, limits assumed).
T1 construct: also called glypican-3; recombinant GPC-3 protein
The experiment can be described thus: SPR, Biacore T200. The method, then: Affinity of 24 anti-GPC-3 IgG₁ antibodies was measured via Surface Plasmon Resonance (SPR) analysis using Biacore™ T200 system and shown in Table E3 (below).

The target in experiment [2] is T1, recombinant human GPC-3 protein. The experiment in a line: binding ELISA with biotin-hGPC-3, EC50 calculated from the curves of FIG. 1A to 1C.

B1: anti-GPC-3 IgG1 clone 3A9 (antibody, V domains shown)
VH: QVQLQQWGAGLLKPSETLSLTCAVYGGSFSGYYWSWIRQPPGKGLEWIGEINHSGSTNYNPSLKSRVTISVDTSKNQFSLKLSSVTAADTAVYYCARLYKRRPFDYWGQGTL
VL: not shown
notes: Tested as IgG1; also called monoclonal antibody 3A9
On to B1, for which, in experiment [1], the Kd amounted to 12.4 nM, the koff came to 0.00188 s⁻¹ and the kon was 151000 M⁻¹ s⁻¹. In addition, the EC50 in experiment [2] was 10.8 nM.

B2: anti-GPC-3 IgG1 clone 1F4 (antibody, V domains shown)
VH: QVQLQQWGAGLLKPSETLSLTCAVYGGSFSGYYWSWIRQPPGKGLEWIGEINHSGSTNYNPSLKSRVTISVDTSKNQFSLKLSSVTVADTAVYYCARLYKRRPFDYWGQGTL
VL: ETTLTQSPGTLSLSPGERATLSCRASQSVSSTYLAWYQQKPGQAPRLLIYGASRRATGSPERFSGGGSGTDFTLTISRLEPEDFAVYYCQHYGNSPGTFGQGTK
notes: Tested as IgG1; also called monoclonal antibody 1F4
In the case of B2, in experiment [1], the Kd came to 7.2 nM, the koff is 0.00129 s⁻¹ and the kon turned out to be 179000 M⁻¹ s⁻¹. Besides, in experiment [2], the 50% effective concentration (EC50) is 10.3 nM.

B3: anti-GPC-3 IgG1 clone 1E1 (antibody, V domains shown)
VH: QVQLQQWGAGLLKPSETLSLTCAVYGGSFSGYYWSWIRQPPGKGLEWIGEINHSGSTNYNPSLKSRVTISVDTSKNQFSLKLSSVTAADTAVYYCARLYKRRPFDYWGQGTL
VL: VTTLTQSPGTLSLSPGERATLSCRASESVSSRYLAWYQQRPGQAPRLLIYGASRRATGSPERFSGGGSGTDFTLTISRLEPEDFAVYYCQHYGNSPGTFGQGTK
notes: Tested as IgG1; also called monoclonal antibody 1E1
On to B3, for which, in experiment [1], the Kd is 16.2 nM, the koff was 0.00233 s⁻¹ and the kon turned out to be 144000 M⁻¹ s⁻¹. Further, the EC50 in experiment [2] is 50.1 nM.

B4: anti-GPC-3 IgG1 clone 1A12 (antibody, V domains shown)
VH: QVQLQQWGAGLLKPSETLSLTCAAYGGSFSGYYWSWIRQPPGKGLEWIGEINHSGSTNYNPSLKSRVTISVDTSKNQFSLKLSSVTAADTAVYYCARLYKRRPFDYWGQGTL
VL: ETTLTQSPGTLSLSPGERATLSCRASQSISSIYLAWYQQKPGQAPRLLIYGASRRATGIPDRFSGSGSGTDFTLTISRLEPEDFAVYYCQQYGSSLRTFGQGTK
notes: Tested as IgG1; also called monoclonal antibody 1A12
For B4, in experiment [1], the Kd was 27.6 nM, the koff worked out at 0.00315 s⁻¹ and the kon turned out to be 114000 M⁻¹ s⁻¹. Further, the EC50 in experiment [2] was 10.2 nM.

B5: anti-GPC-3 IgG1 clone 3G12 (antibody, V domains shown)
VH: QVQLQQWGAGLLKPSETLSLTCAVYGGSFSGYYWSWIRQPPGKGLEWIGEINHSGSTNYNPSLKSRVTISVDTSKNQFSLKLSSVTAADTAVYYCARLYKRRPFDYWGQGTL
VL: ETTLTQSPGTLSLSPGERATLSCRASQSVSSSYLAWYQQKRGQAPRLLIYGASRRATGIPDRFSGSGSGSDFTLTISRLEPEDFAVYYCQQYGSSPSTFGQGTK
notes: Tested as IgG1; also called monoclonal antibody 3G12
With B5, in experiment [1], the Kd came out at 12.5 nM, the koff amounted to 0.00169 s⁻¹ and the kon was 135000 M⁻¹ s⁻¹. Besides, the EC50 in experiment [2] was 11 nM.

B6: anti-GPC-3 IgG1 clone 4G4 (antibody, V domains shown)
VH: QVQLQQWGAGLLKPSETLSLTCAVYGGSFSGYYWSWIRQPPGKGLEWIGEINHSGSTNYNPSLKSRVTISVDTSKNQFSLKLSSVTAADTAVYYCARLYKRRPFDYWGQGTL
VL: ETTLTQSPGTLSLSPGERATLSCRASQSVSSSYLAWYQQKPGQAPRLLIYNASRRATGIPDRFSGSGSGADFTLTISRLDPEDFAVYFCQQYGSSPQTFGQGTK
notes: Tested as IgG1; also called monoclonal antibody 4G4
For B6, in experiment [1], the Kd amounted to 12.9 nM, the koff was found to be 0.00195 s⁻¹ and the kon turned out to be 151000 M⁻¹ s⁻¹. Also, the EC50 in experiment [2] is 12.3 nM.

B7: anti-GPC-3 IgG1 clone 1H10 (antibody, V domains shown)
VH: QLQLQESGGGLVQPGGSLRLSCAASGFTFSSYVMSWVRQAPGKGLEWVSTISGSGGSTYYADSVKGRFTISRDNSKNTLYLQMSSLRAEDTAVYYCVMGWYFDLWGRGTL
VL: EIVLTQSPGTLSLSPGERATLSCRASQSVSSSYLAWYQQKPGQAPRLLIYDASNRATGIPARFSGSGSGTDFTLTISSLEPEDFAVYYCQQRSNWPPRATFGQGTR
notes: Tested as IgG1; also called monoclonal antibody 1H10
With B7, in experiment [1], the Kd was 19.7 nM, the koff stood at 0.0147 s⁻¹ and the kon was 748000 M⁻¹ s⁻¹. Moreover, in experiment [2], the EC50 was 1.65 nM.

For orientation: Kd means the equilibrium constant for the complex coming apart. The term koff denotes a measure of how fast the partners let go of each other. Broadly, the kon is a measure of how fast the partners come together. As a reminder, the EC50 is the concentration at which the effect is half-maximal.
